Assay results taken from patent publication EP0907730B1 (Zenyth Operations Pty Ltd, dated 2009).

T1: IL-4 receptor expressed by parental CTLL cells (UniProt P16382 26-810, limits assumed)
T1 construct: whole, on cells; Endogenous receptor of untransfected CTLL cells; also called IL-4 receptors expressed by CTLL cells; IL-4Rα
T1 sequence (looked up): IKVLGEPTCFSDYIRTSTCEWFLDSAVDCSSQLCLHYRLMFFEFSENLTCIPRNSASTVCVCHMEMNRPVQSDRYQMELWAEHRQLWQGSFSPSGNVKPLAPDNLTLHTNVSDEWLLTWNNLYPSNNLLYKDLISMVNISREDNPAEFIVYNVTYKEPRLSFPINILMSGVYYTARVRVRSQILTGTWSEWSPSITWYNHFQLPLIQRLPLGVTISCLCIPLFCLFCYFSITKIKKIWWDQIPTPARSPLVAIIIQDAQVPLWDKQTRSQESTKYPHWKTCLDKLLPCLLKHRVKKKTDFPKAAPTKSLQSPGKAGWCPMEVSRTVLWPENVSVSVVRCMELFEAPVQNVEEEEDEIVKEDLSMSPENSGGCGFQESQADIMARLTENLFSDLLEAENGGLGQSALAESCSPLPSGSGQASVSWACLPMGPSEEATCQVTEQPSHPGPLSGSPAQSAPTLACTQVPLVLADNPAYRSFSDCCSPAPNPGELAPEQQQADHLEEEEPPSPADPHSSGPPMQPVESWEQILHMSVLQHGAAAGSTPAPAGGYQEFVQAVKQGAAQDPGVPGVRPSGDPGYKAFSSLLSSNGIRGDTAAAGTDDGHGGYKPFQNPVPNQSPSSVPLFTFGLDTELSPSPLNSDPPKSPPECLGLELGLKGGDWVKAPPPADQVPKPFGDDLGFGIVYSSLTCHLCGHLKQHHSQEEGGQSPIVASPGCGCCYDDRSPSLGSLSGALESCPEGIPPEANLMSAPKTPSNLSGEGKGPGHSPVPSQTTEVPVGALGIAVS


Experiments:
[1] = target: T1, IL-4 receptor expressed by parental …; assay: 125I-IL-13 saturation binding on parental CTLL cells
[2] = target: T1, IL-4 receptor expressed by parental …; assay: 125I-IL-4 saturation binding (Scatchard) on parental CTLL cells

| Binder | binding result [1] | Kd [2] [nM] |
| --- | --- | --- |
| IL-13 (obtained commercially, R & D Systems) (ligand, UniProt P20109 19-131, looked up, radioiodinated (125I, iodine monochloride method) where used as tracer, also called interleukin-13) APGPVPRSVSLPLTLKELIEELSNITQDQTPLCNGSMVWSVDLAAGGFCVALDSLTNISNCNAIYRTQRILHGLCNRKAPTTVSSLPDTKIEVAHFITKLLSYTKQLFRHGPF | no binding |  |
| IL-4 (obtained commercially, R & D Systems) (ligand, UniProt P07750 23-140, looked up, radiolabelled with di-iodo-Bolton-Hunter reagent (125I) where used as tracer, also called interleukin-4) HGCDKNHLREIIGILNEVTGEGTPCTEMDVPNVLTATKNTTESELVCRASKVLRIFYLKHGKTPCLKKNSSVLMELQRLFRAFRCLDSSISCTMNESKSTSLKDFLESLKSIMQMDYS |  | ~0.66 |
